Source: patent US6623738 (University of California, dated 2003)
Values joined by “and” are separate entries in the source; they are usually repeats but may differ in a detail not shown here. Equal entries are not always repeated. Values belong to the binder of their own block, whether it stands above or below them.

Key:
[1] = molecular target: T1, SemaIII-AP fusion protein (full-length Sema III fused at its carboxy terminus to alkaline phosphatase); experiment: equilibrium binding of AP fusion to 293-EBNA cells stably expressing rat SR1, Hill fit
[2] = molecular target: AP fusion protein comprising just the semaphorin domain of SemaIII (AP-S); experiment: as above
[3] = molecular target: T1, SemaIII-AP fusion protein (full-length …); experiment: equilibrium binding of AP fusion to neuropilin-1-expressing cells, Hill fit
[4] = molecular target: T2, alkaline phosphatase (AP) alone (UniProt P05187 23-511); experiment: AP histochemistry on transfected COS cells
T2 construct: Control protein; also called alkaline phosphatase protein
T2 sequence (P05187 23-511 limits assumed): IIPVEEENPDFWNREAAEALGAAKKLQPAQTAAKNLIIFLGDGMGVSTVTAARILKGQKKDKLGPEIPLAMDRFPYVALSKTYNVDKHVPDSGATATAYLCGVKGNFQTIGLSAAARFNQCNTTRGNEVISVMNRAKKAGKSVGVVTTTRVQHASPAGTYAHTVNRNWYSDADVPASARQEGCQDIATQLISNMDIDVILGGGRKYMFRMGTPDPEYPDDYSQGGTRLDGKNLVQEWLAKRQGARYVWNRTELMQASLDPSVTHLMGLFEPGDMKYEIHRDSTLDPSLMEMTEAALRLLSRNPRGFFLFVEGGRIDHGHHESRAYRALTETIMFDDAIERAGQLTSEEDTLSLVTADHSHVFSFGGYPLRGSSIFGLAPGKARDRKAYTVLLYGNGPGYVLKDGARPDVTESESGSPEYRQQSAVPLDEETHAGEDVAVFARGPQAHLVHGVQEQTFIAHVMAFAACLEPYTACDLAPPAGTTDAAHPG

[5] = molecular target: T3, Sema E-AP fusion protein (mouse Sema E fused to alkaline phosphatase) (mouse, UniProt Q62181 21-751); experiment: AP fusion binding to transfected COS cells
T3 construct: written as in the name; Partially purified conditioned medium; not shown: secreted alkaline phosphatase of vector APtag-4
T3 sequence (looked up): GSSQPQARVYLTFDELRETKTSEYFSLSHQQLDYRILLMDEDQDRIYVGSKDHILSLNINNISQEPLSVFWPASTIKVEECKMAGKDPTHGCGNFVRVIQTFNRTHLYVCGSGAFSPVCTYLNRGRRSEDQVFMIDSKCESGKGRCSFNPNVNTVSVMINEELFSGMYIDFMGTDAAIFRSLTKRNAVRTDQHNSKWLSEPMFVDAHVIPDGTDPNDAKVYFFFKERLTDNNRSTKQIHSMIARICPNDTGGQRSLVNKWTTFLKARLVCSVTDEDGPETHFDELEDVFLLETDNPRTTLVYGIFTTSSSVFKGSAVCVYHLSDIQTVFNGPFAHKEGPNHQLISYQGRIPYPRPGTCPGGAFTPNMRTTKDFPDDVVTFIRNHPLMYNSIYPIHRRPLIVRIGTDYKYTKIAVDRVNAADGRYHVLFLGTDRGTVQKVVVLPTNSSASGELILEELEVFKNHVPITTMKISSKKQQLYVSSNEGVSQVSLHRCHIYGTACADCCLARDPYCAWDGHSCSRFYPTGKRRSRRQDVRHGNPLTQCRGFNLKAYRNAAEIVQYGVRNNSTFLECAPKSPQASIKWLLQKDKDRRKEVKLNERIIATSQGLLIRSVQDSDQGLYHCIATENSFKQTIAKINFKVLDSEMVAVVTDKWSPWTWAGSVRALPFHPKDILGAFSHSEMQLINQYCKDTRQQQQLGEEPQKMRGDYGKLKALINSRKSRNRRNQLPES

[6] = molecular target: T4, AP fusion with the ectodomain of Sema VIa (UniProt O35464 19-649); experiment: AP fusion binding to transfected COS cells
T4 construct: extracellular domain; also called Sema VIa ectodomain; not shown: alkaline phosphatase (AP) reporter
T4 sequence (looked up): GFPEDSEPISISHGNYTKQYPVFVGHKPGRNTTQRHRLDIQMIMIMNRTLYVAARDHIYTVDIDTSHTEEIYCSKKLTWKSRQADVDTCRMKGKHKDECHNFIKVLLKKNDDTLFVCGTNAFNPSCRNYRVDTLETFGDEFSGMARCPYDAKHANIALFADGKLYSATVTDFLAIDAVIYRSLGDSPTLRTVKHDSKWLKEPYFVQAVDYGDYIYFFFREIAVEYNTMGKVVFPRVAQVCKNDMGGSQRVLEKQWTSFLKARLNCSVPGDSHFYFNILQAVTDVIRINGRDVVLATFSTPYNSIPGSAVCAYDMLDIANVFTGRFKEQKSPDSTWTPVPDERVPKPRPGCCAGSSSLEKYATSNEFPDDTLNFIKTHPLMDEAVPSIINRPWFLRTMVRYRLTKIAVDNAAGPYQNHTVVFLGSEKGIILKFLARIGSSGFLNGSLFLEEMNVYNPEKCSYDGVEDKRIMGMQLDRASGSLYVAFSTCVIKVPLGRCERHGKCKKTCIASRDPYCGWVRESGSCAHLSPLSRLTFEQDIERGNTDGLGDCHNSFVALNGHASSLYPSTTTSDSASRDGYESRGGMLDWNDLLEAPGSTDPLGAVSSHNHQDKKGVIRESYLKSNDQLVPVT

[7] = molecular target: T5, AP fusion with Drosophila D-Sema II (Drosophila, UniProt Q24323 26-724); experiment: AP fusion binding to transfected COS cells
T5 construct: also called Drosophila Sema II; not shown: alkaline phosphatase (AP) reporter
T5 sequence (looked up): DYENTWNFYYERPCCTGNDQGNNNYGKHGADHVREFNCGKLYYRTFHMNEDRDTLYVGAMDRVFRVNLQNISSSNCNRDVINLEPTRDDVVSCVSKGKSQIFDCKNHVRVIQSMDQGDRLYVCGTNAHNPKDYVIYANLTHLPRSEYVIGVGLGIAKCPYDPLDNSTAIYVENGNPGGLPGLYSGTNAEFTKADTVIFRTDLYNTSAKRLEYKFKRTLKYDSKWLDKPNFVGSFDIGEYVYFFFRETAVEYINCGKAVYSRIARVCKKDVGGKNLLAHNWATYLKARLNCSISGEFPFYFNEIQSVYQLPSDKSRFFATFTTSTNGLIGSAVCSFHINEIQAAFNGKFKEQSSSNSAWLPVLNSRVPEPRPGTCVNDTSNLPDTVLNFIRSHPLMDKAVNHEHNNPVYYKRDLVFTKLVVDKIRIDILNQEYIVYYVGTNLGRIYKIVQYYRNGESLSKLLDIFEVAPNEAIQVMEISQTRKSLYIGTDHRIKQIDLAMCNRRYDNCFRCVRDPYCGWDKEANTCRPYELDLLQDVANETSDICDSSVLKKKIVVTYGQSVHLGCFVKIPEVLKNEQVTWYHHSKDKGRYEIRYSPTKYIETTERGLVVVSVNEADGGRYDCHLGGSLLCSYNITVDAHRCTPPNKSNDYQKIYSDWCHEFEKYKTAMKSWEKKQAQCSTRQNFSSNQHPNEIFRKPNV

Kd [1]: 0.0553 µg/mL and 0.325 nM | Kd [2]: 0.219 µg/mL and 1.45 nM
B1: rat semaphorin receptor 1 (rSR1), full length, expressed on cells (receptor)
chain: FRSDKCGGTIKIENPGYLTSPGYPHSYHPSEKCEWLIQAPEPYQRIMINFNPHFDLEDRDCKYDYVEVIDGENEGGRLWGKFCGKIAPSPVVSSGPFLFIKFVSDYETHGAGFSIRYEIFKRGPECSQNYTAPTGVIKSPGFPEKYPNSLECTYIIFAPKMSEIILEFESFDLEQDSNPPGGMFCRYDRLEIWDGFPEVGPHIGRYCGQKTPGRIRSSSGILSMVFYTDSAIAKEGFSANYSVLQSSISEDFKCMEALGMESGEIHSDQITASSQYGTNWSVERSRLNYPENGWTPGEDSYREWIQVDLGLLRFVTAVGTQGAISKETKKKYYVKTYRVDISSNGEDWITLKEGNKAIIFQGNTNPTDVVFGVFPKPLITRFVRIKPASWETGISMRFEVYGCKITDYPCSGMLGMVSGLISDSQITASNQGDRNWMPENIRLVTSRTGWALPPSPHPYINEWLQVDLGDEKIVRGVIIQGGKHRENKVFMRKFKIAYSNNGSDWKMIMDDSKRKAKSFEGNNNYDTPELRAFTPLSTRFIRIYPERATHSGLGLRMELLGCEVEVPTAGPTTPNGNPVDECDDDQANCHSGTGDDFQLTGGTTVLATEKPTIIDSTIQSEFPTYGFNCEFGWGSHKTFCHWEHDSHAQLRWRVLTSKTGPIQDHTGDGNFIYSQADENQKGKVARLVSPVVYSQSSAHCMTFWYHMSGSHVGTLRVKLHYQKPEEYDQLVWMVVGHQGDHWKEGRVLLHKSLKLYQVIFEGEIGKGNLGGIAVDDISINNHIPQEDCAKPTDLDKKNTEIKIDETGSTPGYEEGKGDKNISRKPGNVLKTLDPILITIIAMSALGVLLGAVCGVVLYCACWHNGMSERNLSALENYNFELVDGVKLKKDKLNPHSNYSEA
notes: also called rat SR1; p28

Kd [3]: 0.325 nM
B2: neuropilin-1 transiently expressed in COS-7 cells (receptor)
chain: FRSDKCGGTIKIENPGYLTSPGYPHSYHPSEKCEWLIQAPEPYQRIMINFNPHFDLEDRDCKYDYVEVIDGENEGGRLWGKFCGKIAPSPVVSSGPFLFIKFVSDYETHGAGFSIRYEIFKRGPECSQNYTAPTGVIKSPGFPEKYPNSLECTYIIFAPKMSEIILEFESFDLEQDSNPPGGVFCRYDRLEIWDGFPEVGPHIGRYCGQKTPGRIRSSSGILSMVFYTDSAIAKEGFSANYSVLQSSISEDFKCMEALGMESGEIHSDQITASSQYGTNWSVERSRLNYPENGWTPGEDSYREWIQVDLGLLRFVTAVGTQGAISKETKKKYYVKTYRVDISSNGEDWITLKEGNKAIIFQGNTNPTDVVFGVFPKPLITRFVRIKPASWETGISMRFEVYGCKITDYPCSGMLGMVSGLISDSQITASNQGDRNWMPENIRLVTSRTGWALPPSPHPYINEWLQVDLGDEKIVRGVIIQGGKHRENKVFMRKFKIAYSNNGSDWKMIMDDSKRKAKSFEGNNNYDTPELRAFTPLSTRFIRIYPERATHSGLGLRMELLGCEVEVPTAGPTTPNGNPVDECDDDQANCHSGTGDDFQLTGGTTVLATEKPTIIDSTIQSEFPTYGFNCEFGWGSHKTFCHWEHDSHAQLRWRVLTSKTGPIQDHTGDGNFIYSQADENQKGKVARLVSPVVYSQSSAHCMTFWYHMSGSHVGTLRVKLHYQKPEEYDQLVWMVVGHQGDHWKEGRVLLHKSLKLYQVIFEGEIGKGNLGGIAVDDISINNHIPQEDCAKPTDLDKKNTEIKIDETGSTPGYEEGKGDKNISRKPGNVLKTLDPILITIIAMSALGVLLGAVCGVVLYCACWHNGMSERNLSALENYNFELVDGVKLKKDKLNPQSNYSEA
notes: also called npn-1; SR1

binding result [4]: no binding | binding result [5]: binds | binding result [6]: no binding | binding result [7]: no binding
B3: mouse neuropilin-2(b5), myc-tagged, expressed in COS-7 cells (receptor, not shown: small tags and cut ends)
chain: RSQQDPPCGGRPNSKDAGYITSPGYPQDYPSHQNCEWIVYAPEPNQKIVLNFNPHFEIEKHDCKYDFIEIRDGDSESADLLGKHCGNIAPPTIISSGSVLYIKFTSDYARQGAGFSLRYEIFKTGSEDCSKNFTSPNGTIESPGFPEKYPHNLDCTFTILAKPRMEIILQFLTFDLEHDPLQVGEGDCKYDWLDIWDGIPHVGPLIGKYCGTKTPSKLRSSTGILSLTFHTDMAVAKDGFSARYYLIHQEPPENFQCNVPLGMESGRIANEQISASSTFSDGRWTPQQSRLHGDDNGWTPNLDSNKEYLQVDLRFLTMLTAIATQGAISRETQKGYYVKSYKLEVSTNGEDWMVYRHGKNHKIFQANNDATEVVLNKLHMPLLTRFIRIRPQTWHLGIALRLELFGCRVTDAPCSNMLGMLSGLIADTQISASSTREYLWSPSAARLVSSRSGWFPRNPQAQPGEEWLQVDLGTPKTVKGVIIQGARGGDSITAVEARAFVRKFKVSYSLNGKDWEYIQDPRTQQTKLFEGNMHYDTPDIRRFDPVPAQYVRVYPERWSPAGIGMRLEVLGCDWTDSKPTVETLGPTVKSEETTTPYPMDEDATECGENCSFEDDKDLQLPSGFNCNFDFPEETCGWVYDHAKWLRSTWISSANPNDRTFPDDKNFLKLQSDGRREGQYGRLISPPVHLPRSPVCMEFQYQAMGGHGVALQVVREASQESKLLWVIREDQGSEWKHGRIILPSYDMEYQIVFEGVIGKGRSGEISIDDIRISTDVPLENCMEPISAFAGEDFKGGTLPPGTEPTVDTVPVQPIPAYWYYVMAAGGAVLVLASVVLALVLHYHRFRYAAKKTDHSITYKTSHYTNGAPLAVEPTLTIKLEQERGSHC
notes: also called b5 isoform of neuropilin-2; SR2(b)5
